Measured values taken from PMC10280071, “Allelic variation in the indoleacetic acid-lysine synthase gene of the bacterial pathogen Pseudomonas savastanoi and its role in auxin production” (Frontiers in Plant Science, 2023).

Experiments:
[1] = tested on: T1, IaaLPsf-3; assay: coupled continuous spectrophotometric assay of AMP formation (myokinase/pyruvate kinase/lactate dehydrogenase, NADH at […] nm); type: biochemical, Pseudomonas savastanoi; settings: 1 mM ATP, 3 mM MgCl2, 100 mM KCl, 50 mM Tris-HCl pH 8.0, 25 °C
T1 construct: wild-type full-length ORF in pET28a, His6-tagged (C-terminal in methods, N-terminal in results), tag not cut, E. coli BL21

[2] = tested on: O=C(O)Cc1c[nH]c2ccccc12; assay: purified protein; settings: 5 mM lysine fixed, IAA 0.05-10 mM, 1 mM ATP, 3 mM MgCl2, 100 mM KCl, 50 mM Tris-HCl pH 8.0, 25 °C

O=C(O)Cc1c[nH]c2ccccc12 [IAA]
Km ([1]; 5 mM lysine fixed, IAA 0.05-10 mM): 836 ± 142 µM

NCCCC[C@H](N)C(=O)O [Lys]
Km ([1]; 1 mM IAA fixed, lysine 0.01-10 mM): 320 ± 45 µM

IaaLPsn-1 (Pseudomonas savastanoi pv. nerii)
Km [2]: 617 ± 158 µM | Vmax [2]: 0.0106 µmol/min/mg | Vmax/Km [2]: 17.2 µL/min/mg
